Our source for the stoichiometry N values is PMC12501226.

Experiment in all cases: SEC
Experiment [1] has as its target T18A (collagen XVIII trimerization domain, 18-residue G/S linker, ACE2 18-615) (human) (UniProt P39060).
The target in experiment [2] is T3A (collagen XVIII trimerization domain, 3-residue G/S linker, ACE2 18-615) (human) (UniProt P39060).
The target of experiment [3] is T5A (collagen XVIII trimerization domain, 5-residue G/S linker, ACE2 18-615) (human) (UniProt P39060).
In experiment [4] the target is T1A (collagen XVIII trimerization domain, 1-residue G/S linker, ACE2 18-615) (human) (UniProt P39060).

For the substance “T18A (collagen XVIII trimerization domain, 18-residue G/S linker, ACE2 18-615) (from UniProt P39060;Q9BYF1)”, in experiment [1], the stoichiometry N came out at 3.
Consider “T3A (collagen XVIII trimerization domain, 3-residue G/S linker, ACE2 18-615) (from UniProt P39060;Q9BYF1)”, for which the stoichiometry N in experiment [2] was 3.
In experiment [3], “T5A (collagen XVIII trimerization domain, 5-residue G/S linker, ACE2 18-615) (from UniProt P39060;Q9BYF1)” had a stoichiometry N of 3.
In the case of “T1A (collagen XVIII trimerization domain, 1-residue G/S linker, ACE2 18-615) (from UniProt P39060;Q9BYF1)”, in experiment [4], the stoichiometry N came out at 3.
